T1: His6-SND1ΔC (SND1 residues 1-339) (human, UniProt Q7KZF4 1-339)
T1 construct: not shown: N-terminal His tag (His6, His8 or His) with TEV site, pQlink vector
T1 sequence: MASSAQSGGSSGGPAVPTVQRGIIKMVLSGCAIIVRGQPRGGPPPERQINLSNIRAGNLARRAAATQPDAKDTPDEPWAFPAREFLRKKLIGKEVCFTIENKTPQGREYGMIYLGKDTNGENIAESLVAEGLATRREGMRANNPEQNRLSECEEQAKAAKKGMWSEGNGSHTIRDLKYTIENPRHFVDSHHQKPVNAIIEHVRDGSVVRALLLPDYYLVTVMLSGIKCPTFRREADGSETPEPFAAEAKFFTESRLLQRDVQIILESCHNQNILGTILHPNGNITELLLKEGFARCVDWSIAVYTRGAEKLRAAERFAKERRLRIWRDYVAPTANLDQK

T2: murine SND1, wild type (mouse, UniProt Q78PY7 1-910)
T2 construct: Endogenous protein of murine PyMT mammary tumor cells; also called SND1 (in PyMT tumor cells); WT shRNA-resistant murine SND1
T2 sequence (looked up): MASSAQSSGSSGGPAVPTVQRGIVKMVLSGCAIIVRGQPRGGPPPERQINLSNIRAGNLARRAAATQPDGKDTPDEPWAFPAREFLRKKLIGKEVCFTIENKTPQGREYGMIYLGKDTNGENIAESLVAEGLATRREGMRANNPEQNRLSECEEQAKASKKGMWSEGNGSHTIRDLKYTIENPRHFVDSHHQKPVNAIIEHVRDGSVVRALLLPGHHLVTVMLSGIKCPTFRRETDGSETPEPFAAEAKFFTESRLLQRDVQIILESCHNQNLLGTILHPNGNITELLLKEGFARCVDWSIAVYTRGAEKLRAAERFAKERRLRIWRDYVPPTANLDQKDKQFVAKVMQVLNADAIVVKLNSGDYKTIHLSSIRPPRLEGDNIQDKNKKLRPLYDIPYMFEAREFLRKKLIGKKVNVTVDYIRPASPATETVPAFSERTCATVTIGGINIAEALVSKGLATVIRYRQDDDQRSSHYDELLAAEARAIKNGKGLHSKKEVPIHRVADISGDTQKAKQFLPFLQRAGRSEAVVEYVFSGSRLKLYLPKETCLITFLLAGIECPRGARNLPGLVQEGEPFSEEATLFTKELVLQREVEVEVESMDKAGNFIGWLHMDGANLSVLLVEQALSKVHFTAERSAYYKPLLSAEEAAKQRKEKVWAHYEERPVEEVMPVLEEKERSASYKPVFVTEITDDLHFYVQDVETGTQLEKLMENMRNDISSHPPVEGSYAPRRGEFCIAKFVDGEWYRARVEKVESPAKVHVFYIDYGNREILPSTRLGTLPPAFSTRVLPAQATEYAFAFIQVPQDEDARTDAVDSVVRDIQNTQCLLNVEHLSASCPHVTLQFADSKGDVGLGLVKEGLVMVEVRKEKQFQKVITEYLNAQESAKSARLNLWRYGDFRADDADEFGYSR

B1: GST-MTDH (1-289) (other)
chain: MAARSWQDELAQQAEEGSARLREMLSVGLGFLRTELGLDLGLEPKRYPGWVILVGTGALGLLLLFLLGYGWAAACAGSRKKRRSPPRKREEAAAVPAAAPDDLALLKNLRSEEQKKKNRKKLSEKPKPNGRTVEVAEGEAVRTPQSVTAKQPPEIDKKNEKSKKNKKKSKSDAKAVQNSSRHDGKEVDEGAWETKISHREKRQQRKRDKVLTDSGSLDSTIPGIENTITVTTEQLTTASFPVGSKKNKGDSHLNVQVSNFKSGKGDSTLQVSSGLNENLTVNGGGWNEK
notes: not shown: N-terminal GST tag with TEV site, pQlink vector
B2: GST-MTDH (364-582) TPM2 (E399R, E400R, W401D) (other)
chain: YQWDVSRNQPYIDDEWSGLNGLSSADPNSDWNAPARRDGNWVDEERASLLKSQEPIPDDQKVSDDDKEKGEGALPTGKSKKKKKKKKKQGEDNSTAQDTEELEKEIREDLPVNTSKTRPKQEKAFSLKTISTSDPAEVLVKNSQPIKTLPPATSTEPSVILSKSDSDKSSSQVPPILQETDKSKSNTKQNSVPPSQTKSETSWESPKQIKKKKKARRET
notes: as for B1
B3: GST-MTDH (364-582) TPM1 (D389R, D393R, W394D) (other)
chain: B2 chain with D26R, D30R, W31D, R36E, R37E, D38W
notes: as for B1
B4: murine MTDH TPM1 (D386R, D390R, W391D) (other, mouse, UniProt Q80WJ7 1-579, looked up)
chain: MAARSWQDELAQQAEEGSARLRELLSVGLGFLRTELGLDLGLEPKRYPGWVILVGTGALGLLLLFLLGYGWAAACAGARKKRRSPPRKREEAAPPTPAPDDLAQLKNLRSEEQKKKNRKKLPEKPKPNGRTVEVPEDEVVRNPRSITAKQAPETDKKNEKSKKNKKKSKSDAKAVQNSSRHDGKEVDEGAWETKISHREKRQQRKRDKVLTDSGSLDSTIPGIENIITVTTEQLTTASFPVGSKKNKGDSHLNVQVSNFKSGKGDSTLQVSSRLNENLTVNGGGWSEKSVKLSSQLSEEKWNSVPPASAGKRKTEPSAWTQDTGDTNANGKDWGRNWSDRSIFSGIGSTAEPVSQSTTSDYQWDVSRNQPYIDDEWSGLNGLSSARPSSRDNAPAEEWGNWVDEDRASLLKSQEPISNDQKVSDDDKEKGEGALPTGKSKKKKKKKKKQGEDNSHTQDTEDLEKDTREELPVNTSKARPKQEKACSLKTMSTSDPAEVLIKNSQPVKTLPPAISAEPSITLSKGDSDNSSSQVPPMLQDTDKPKSNAKQNSVPPSQTKSETNWESPKQIKKKKKARRET
notes: also called TPM1 (murine form)
B5: murine MTDH W398A (printed as W401A in human numbering) (other, mouse, UniProt Q80WJ7 1-579, looked up)
chain: B4 chain with R386D, R390D, D391W, W398A
notes: also called W401A (murine form)
B6: murine MTDH W391A (printed as W394A in human numbering) (other, mouse, UniProt Q80WJ7 1-579, looked up)
chain: B4 chain with R386D, R390D, D391A
notes: also called W394A (murine form)
B7: murine MTDH TPM2 (E396R, E397R, W398D) (other, mouse, UniProt Q80WJ7 1-579, looked up)
chain: B4 chain with R386D, R390D, D391W, E396R, E397R, W398D
notes: also called TPM2 (murine form)
B8: GST-MTDH (364-582) W401A (protein, not shown: a dimerising Fc or GST)
chain: B2 chain with R36E, R37E, D38A
B9: GST-MTDH (364-582) W394D (protein, not shown: a dimerising Fc or GST)
chain: B2 chain with W31D, R36E, R37E, D38W

Positions count from the first letter of the chain named. Names may count otherwise.

One experiment has as its target T1, His6-SND1ΔC (SND1 residues 1-339). Description: GST pull-down of His6-SND1ΔC, SDS-PAGE, Coomassie. The text has this:
FIGS. 7A-E represents determination of key regions and residues mediating the MTDH-SND1 interaction. (FIG. 7A) Schematics of MTDH fragments and mutants with indicated SND1-binding capability. + indicates binding and − indicates no binding based on results shown below. Two putative nuclear localization signals are residues 432-451 for NLS2 and residues 561-580 for NLS3. […] (FIG. 7B) Pulldown of His6-SND1ΔC by GST-tagged MTDH fragments with indicated boundaries. The bound proteins were examined by SDS-PAGE and visualized by Coomassie blue staining. […] For (FIG. 7B) and (FIG. 7C), 1/10 of the His6-SND1ΔC input was shown, and GST alone was used as a negative control. Representative results of 3 independent experiments are shown. (FIG. 7D, FIG. 7E) Lysates from HEK293T cells expressing the indicated ectopic human SND1, AGO2 or MTDH were immunoprecipitated with anti-Myc and immunoblotted with the indicated antibodies.
TPM1 comprises mutations D389R, D393R and W394D. TPM2 comprises mutations E399R, E400R and W401D. TPM3 comprises mutations W404D, D406R and E407R. […] The mutations are also set out in Table 3.
With B1, the binding result is listed as “no binding”. The same measure, in the same setting: with B2 the entry was “no binding”; with B3, “no binding”.

The next experiment deals with T2, murine SND1, wild type. In words: co-IP (anti-MTDH) from reconstituted PyMT;Mtdh-/- tumor cells, western blot. An excerpt:
IP lysates were subjected to western blotting with indicated antibodies.
In particular, genetic deletion of Mtdh in mice impairs the tumor-initiating potential of mammary epithelial cells transformed by diverse oncogenes (PyMT, Wnt, ErbB2) or carcinogen stimuli, and this defect can be readily rescued by reintroducing MTDH into Mtdh-knockout (Mtdh−/−) tumor cells by lentiviral transduction. To test whether interacting with SND1 is important for the tumor-initiating effect of MTDH, the murine form of WT or mutant MTDH (W394A or W401A, corresponding mutations in mouse are W391A, W398A) was stably expressed in mammary tumor cells from PyMT;Mtdh−/− mice. […] To examine how MTDH mutations affect tumor formation in vivo, PyMT;Mtdh−/− tumor cells were orthotopically transplanted into the mammary fat pads of WT recipient mice. […] Furthermore, the size of tumors formed by PyMT;Mtdh−/− tumor cells reconstituted with mutant MTDH was much smaller than that with WT MTDH (FIG. 23D-E).
As for B4, the binding result was “no binding”. Regarding B5, the binding result is “no binding”.

For the molecule B6, the binding result is given as “no binding”. In the case of B7, the binding result is listed as “no binding”.

A further experiment addresses His-SND1 (16-339), SN1/2 domains, wild type (human) (UniProt Q7KZF4). Description: GST pull-down on glutathione resin, SDS-PAGE, Coomassie blue; normalised percentage of binding, mean±SEM of three experiments.
B8 returned a % Maximum binding of 6%. B9 came in with a % Maximum binding of 4%.

The record behind these values is US20190336574A1 (TRUSTEES OF PRINCETON UNIVERSITY, published 2019).
